Source: paper PMC10491619

Target: Exchange Protein Activated by cAMP 1, purified recombinant wild type
Experiment: phase separation measured by centrifugation and A280 of the cleared supernatant; purified protein alone, with 30 uM cAMP; 5-25 uM protein at 50-250 mM NaCl, 25 mM Tris-HCl pH 8.8, 5 mM MgCl2; 20 °C, 15 min; 16,900 x g, 30 min

Exchange Protein Activated by cAMP 1, purified recombinant wild type, sequence (O95398 whole entry): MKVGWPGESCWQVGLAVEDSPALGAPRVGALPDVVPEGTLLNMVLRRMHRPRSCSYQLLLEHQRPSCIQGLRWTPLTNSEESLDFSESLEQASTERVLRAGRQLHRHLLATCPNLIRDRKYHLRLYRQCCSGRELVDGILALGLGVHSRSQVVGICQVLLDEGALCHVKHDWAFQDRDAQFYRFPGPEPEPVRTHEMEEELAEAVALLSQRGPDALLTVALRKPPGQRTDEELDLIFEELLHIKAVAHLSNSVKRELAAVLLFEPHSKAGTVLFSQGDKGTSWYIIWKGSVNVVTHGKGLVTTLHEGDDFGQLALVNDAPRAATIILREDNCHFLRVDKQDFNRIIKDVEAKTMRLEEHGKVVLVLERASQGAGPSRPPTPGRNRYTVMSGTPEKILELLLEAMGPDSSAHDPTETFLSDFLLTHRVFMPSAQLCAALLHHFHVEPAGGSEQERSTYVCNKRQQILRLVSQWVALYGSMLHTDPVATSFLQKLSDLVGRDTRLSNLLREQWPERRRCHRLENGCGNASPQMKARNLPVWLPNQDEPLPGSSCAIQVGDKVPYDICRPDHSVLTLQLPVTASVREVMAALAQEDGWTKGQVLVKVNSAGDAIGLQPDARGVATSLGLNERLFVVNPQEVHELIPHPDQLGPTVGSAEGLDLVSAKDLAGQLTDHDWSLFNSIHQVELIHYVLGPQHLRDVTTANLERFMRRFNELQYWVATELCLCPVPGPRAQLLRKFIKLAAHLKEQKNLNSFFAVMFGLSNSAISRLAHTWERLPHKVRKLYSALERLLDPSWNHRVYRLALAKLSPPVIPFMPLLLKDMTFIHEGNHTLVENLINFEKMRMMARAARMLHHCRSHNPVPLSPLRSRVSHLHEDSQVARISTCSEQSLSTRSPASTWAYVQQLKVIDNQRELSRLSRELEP

condensation ratio +cAMP/-cAMP at 150 mM salt: 2.5 | percent of protein in condensates (150 mM salt, with cAMP): 50%
Substance: Exchange Protein Activated by cAMP 1, purified recombinant wild type (natural protein)
